Test results as given in patent publication US7063950.

Columns and labels:
[1] = target: human neuronal calcium channel α1B-1 subunit (human)
[2] = target: human neuronal calcium channel α1B-2α2bβ1-3 (human)
[3] = target: human neuronal calcium channel α1B-2α2bβ1-3 (human); experiment: saturation binding of 125I-ω-CgTx GVIA to transiently transfected HEK293 cells

Binder: CKSPGSSCSPTSYNCCRSCNPYTKRCY (modifications not checked) [125I-ω-CgTx GVIA, P01522 46-72]
- Bmax (sites/cell) [1]: 757 sites/cell
- Kd [1]: 0.0317 nM
- fold binding capacity against α1B-2α2bβ1-2 [2]: 2 fold
- fold surface receptor density against α1B-2β1-3 [2]: 13 fold
- Bmax (sites/cell) [3]: 37700 sites/cell
- Kd [3]: 0.0443 nM
